According to paper PMC10500825, “TGFβ1-RCN3-TGFBR1 loop facilitates pulmonary fibrosis by orchestrating fibroblast activation” (Respiratory Research, 2023):

Biological target: T1, recombinant human EZH2 protein, biotinylated (human, UniProt Q15910 1-746, biotin (Biotinylation Kit, Thermo Scientific 21329))
T1 construct: Enhancer of zeste homolog 2 (EZH2), human recombinant protein, Origene TP302054; check the vendor's sheet; also called rhEZH2; source: bought: Origene (TP302054), biotinylated and desalted
T1 sequence (Q15910 whole entry): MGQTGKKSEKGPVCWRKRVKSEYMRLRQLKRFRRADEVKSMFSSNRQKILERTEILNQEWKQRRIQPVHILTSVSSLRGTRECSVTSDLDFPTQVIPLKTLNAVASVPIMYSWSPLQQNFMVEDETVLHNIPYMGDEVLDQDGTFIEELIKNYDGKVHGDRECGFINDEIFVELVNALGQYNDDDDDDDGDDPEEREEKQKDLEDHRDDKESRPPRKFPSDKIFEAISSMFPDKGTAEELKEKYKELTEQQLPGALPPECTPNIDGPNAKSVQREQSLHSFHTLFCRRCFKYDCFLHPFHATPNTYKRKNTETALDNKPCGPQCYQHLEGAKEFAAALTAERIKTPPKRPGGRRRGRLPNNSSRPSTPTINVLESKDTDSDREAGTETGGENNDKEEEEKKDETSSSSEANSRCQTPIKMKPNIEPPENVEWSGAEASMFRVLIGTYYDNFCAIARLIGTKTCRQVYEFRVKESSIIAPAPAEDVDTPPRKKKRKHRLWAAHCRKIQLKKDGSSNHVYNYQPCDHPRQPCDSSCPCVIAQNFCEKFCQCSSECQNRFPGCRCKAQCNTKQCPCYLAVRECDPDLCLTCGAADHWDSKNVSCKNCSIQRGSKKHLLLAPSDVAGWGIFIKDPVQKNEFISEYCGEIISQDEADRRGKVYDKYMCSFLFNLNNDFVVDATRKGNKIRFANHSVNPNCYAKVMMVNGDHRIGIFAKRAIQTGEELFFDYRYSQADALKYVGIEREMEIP
Experiment: BLI; OctetRED; his-tagged rhRcn3 (5 µg/ml) immobilised on NTA biosensors; biotinylated rhEZH2 at 262.3, 131.1, 65.56 and 32.78 µg/ml in binding buffer; association and dissociation for 10 min at 25 °C
Settings: both partners purified

B1: recombinant human Rcn3 with his-tag (natural protein, UniProt Q96D15 21-328, looked up)
chain: KPSPDAGPHGQGRVHQAAPLSDAPHDDAHGNFQYDHEAFLGREVAKEFDQLTPEESQARLGRIVDRMDRAGDGDGWVSLAELRAWIAHTQQRHIRDSVSAAWDTYDTDRDGRVGWEELRNATYGHYAPGEEFHDVEDAETYKKMLARDERRFRVADQDGDSMATREELTAFLHPEEFPHMRDIVIAETLEDLDRNKDGYVQVEEYIADLYSAEPGEEEPAWVQTERQQFRDFRDLNKDGHLDGSEVGHWVLPPAQDQPLVEANHLLHESDTDKDGRLSKAEILGNWNMFVGSQATNYGEDLTRHHDEL
notes: Reticulocalbin 3 (RCN3), human recombinant protein, Abcam ab276552; Construct limits are those of the vendor's product; also called rhRcn3; hrRcn3; source: bought: Abcam (ab276552)
- Kd: 1540 nM
